Measured values: paper PMC8569915 (ChemSusChem, 2021)

Molecular target: the molecule itself
Assay: SEC

For Ac-GIAALEQKCAACEEKNAALEWKIAALEKKG-NH2 (cysteine pairing not given here) [[2SCC-(I9CL12C)2]], the “stoichiometry N” value was 2.
